Assay results taken from patent US20230301998.
Changes are numbered by the printed parent chain.

Key:
V5-tagged IFI204 WT = test system: T1, V5-tagged IFI204 WT
T1 sequence: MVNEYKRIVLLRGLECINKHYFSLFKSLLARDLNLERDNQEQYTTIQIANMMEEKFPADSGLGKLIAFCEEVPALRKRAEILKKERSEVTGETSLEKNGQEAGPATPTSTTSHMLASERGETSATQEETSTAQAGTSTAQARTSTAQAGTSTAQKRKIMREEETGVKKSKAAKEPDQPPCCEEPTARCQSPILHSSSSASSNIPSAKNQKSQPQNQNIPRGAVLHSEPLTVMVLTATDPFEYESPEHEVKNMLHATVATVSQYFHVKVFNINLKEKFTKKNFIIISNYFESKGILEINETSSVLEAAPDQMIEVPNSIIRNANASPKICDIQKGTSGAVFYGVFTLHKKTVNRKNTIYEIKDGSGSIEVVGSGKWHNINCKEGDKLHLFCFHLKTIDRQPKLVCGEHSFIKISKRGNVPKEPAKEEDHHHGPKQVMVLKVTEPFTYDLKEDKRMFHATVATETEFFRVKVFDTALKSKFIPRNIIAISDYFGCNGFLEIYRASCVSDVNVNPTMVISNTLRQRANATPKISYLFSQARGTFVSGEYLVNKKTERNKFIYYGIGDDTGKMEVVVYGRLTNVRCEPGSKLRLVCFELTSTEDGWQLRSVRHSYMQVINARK

[1] = test system: T2, V5-tagged IFI204 RR12/538AA
T2 sequence: T1 sequence with R12A, R538A

V5-tagged IFI204 R12A = test system: T3, V5-tagged IFI204 R12A
T3 sequence: T1 sequence with R12A

V5-tagged IFI204 R538A = test system: T4, V5-tagged IFI204 R538A
T4 sequence: T1 sequence with R538A

## recombinant active PRMT5 plus WDR77
V5-tagged IFI204 WT
  in vitro methylation (3H-SAM, autoradiography): IFI204 WT protein was methylated by PRMT5 /WDR77
[1]
  in vitro methylation (3H-SAM, autoradiography): Immunopurified WT IFI204, but not a mutant form lacking either Arg12, Arg538 or both, was methylated in vitro by recombinant PRMT5
V5-tagged IFI204 R12A
  in vitro methylation (3H-SAM, autoradiography): Immunopurified WT IFI204, but not a mutant form lacking either Arg12, Arg538 or both, was methylated in vitro by recombinant PRMT5
V5-tagged IFI204 R538A
  in vitro methylation (3H-SAM, autoradiography): Immunopurified WT IFI204, but not a mutant form lacking either Arg12, Arg538 or both, was methylated in vitro by recombinant PRMT5
